Reference: patent US20200164059A1
Read-outs that look alike come from different tables or passages of the source.

Assays:
[1] = target: gp350 on EBV virions (Epstein Barr virus) (UniProt P03200); assay: cell-based or functional assay
[2] = target: EBV gH/gL heterodimer, recombinant ectodomain (Epstein Barr virus); assay: BLI kinetics, pH 5.0, ligand CL40 Mab, analyte gH/gL; kon (1/Ms) x10^5
[3] = target: EBV gH/gL heterodimer, recombinant ectodomain (Epstein Barr virus); assay: BLI kinetics, pH 5.0, ligand CL40 Mab, analyte gH/gL; koff (1/s) x10^-3
[4] = target: EBV gH/gL heterodimer, recombinant ectodomain (Epstein Barr virus); assay: BLI kinetics, pH 7.4, ligand CL40 Mab, analyte gH/gL; koff (1/s) x10^-3
[5] = target: EBV gH/gL heterodimer, recombinant ectodomain (Epstein Barr virus); assay: BLI kinetics, pH 7.4, ligand CL40 Mab, analyte gH/gL; KD M x10^-9
[6] = target: EBV gH/gL heterodimer, recombinant ectodomain (Epstein Barr virus); assay: BLI kinetics, pH 7.4, ligand CL40 Mab, analyte gH/gL; kon (1/Ms) x10^5
[7] = target: EBV gH/gL heterodimer, recombinant ectodomain (Epstein Barr virus); assay: BLI kinetics, pH 5.0, ligand CL40 Mab, analyte gH/gL; KA M^-1 x10^7
[8] = target: gH/gL on EBV virions (Epstein Barr virus) (UniProt P03231); assay: cell-based or functional assay
[9] = target: EBV gH/gL heterodimer, recombinant ectodomain (Epstein Barr virus); assay: BLI kinetics, pH 5.0, ligand CL40 Mab, analyte gH/gL; KD M x10^-9
[10] = target: EBV gH/gL heterodimer, recombinant ectodomain (Epstein Barr virus); assay: BLI kinetics, pH 7.4, ligand CL40 Mab, analyte gH/gL; KA M^-1 x10^7
[11] = target: EBV gH/gL heterodimer, recombinant ectodomain (Epstein Barr virus); assay: BLI kinetics, pH 7.4, ligand CL59 Mab, analyte gH/gL; kon (1/Ms) x10^5
[12] = target: EBV gH/gL heterodimer, recombinant ectodomain (Epstein Barr virus); assay: BLI kinetics, pH 5.0, ligand CL59 Mab, analyte gH/gL; KA M^-1 x10^7
[13] = target: EBV gH/gL heterodimer, recombinant ectodomain (Epstein Barr virus); assay: BLI kinetics, pH 7.4, ligand CL59 Mab, analyte gH/gL; KD M x10^-9
[14] = target: EBV gH/gL heterodimer, recombinant ectodomain (Epstein Barr virus); assay: BLI kinetics, pH 7.4, ligand CL59 Mab, analyte gH/gL; koff (1/s) x10^-3
[15] = target: EBV gH/gL heterodimer, recombinant ectodomain (Epstein Barr virus); assay: BLI kinetics, pH 7.4, ligand CL59 Mab, analyte gH/gL; KA M^-1 x10^7
[16] = target: EBV gH/gL heterodimer, recombinant ectodomain (Epstein Barr virus); assay: BLI kinetics, pH 5.0, ligand CL59 Mab, analyte gH/gL; KD M x10^-9
[17] = target: EBV gH/gL heterodimer, recombinant ectodomain (Epstein Barr virus); assay: BLI kinetics, pH 5.0, ligand CL59 Mab, analyte gH/gL; koff (1/s) x10^-3
[18] = target: EBV gH/gL heterodimer, recombinant ectodomain (Epstein Barr virus); assay: BLI kinetics, pH 5.0, ligand CL59 Mab, analyte gH/gL; kon (1/Ms) x10^5
[19] = target: EBV gH/gL heterodimer, recombinant ectodomain (Epstein Barr virus); assay: BLI kinetics, pH 7.4, ligand gH/gL, analyte gp42; KA M^-1 x10^7
[20] = target: EBV gH/gL heterodimer, recombinant ectodomain (Epstein Barr virus); assay: BLI kinetics, pH 7.4, ligand gH/gL, analyte gp42; KD M x10^-9
[21] = target: EBV gH/gL heterodimer, recombinant ectodomain (Epstein Barr virus); assay: BLI kinetics, pH 7.4, ligand gH/gL, analyte gp42; kon (1/Ms) x10^5
[22] = target: EBV gH/gL heterodimer, recombinant ectodomain (Epstein Barr virus); assay: BLI kinetics, pH 7.4, ligand gH/gL, analyte gp42; koff (1/s) x10^-3
[23] = target: EBV gH/gL heterodimer, recombinant ectodomain (Epstein Barr virus); assay: BLI kinetics, pH 7.4, ligand gH/gL, analyte gp42 T175A; KD M x10^-9
[24] = target: EBV gH/gL heterodimer, recombinant ectodomain (Epstein Barr virus)

## 72A1 (antibody)
[1]
  neutralization of B95.8/F EBV infection of B (Raji) cells, IC50: 0.08 µg/mL

## CL40 (antibody)
[2]
  kon: 594000 M⁻¹ s⁻¹
[3]
  koff: 0.00356 s⁻¹
[4]
  koff: 0.00318 s⁻¹
[5]
  Kd: 6.77 nM
[6]
  kon: 469000 M⁻¹ s⁻¹
[7]
  Ka: 1.67e+08 M⁻¹
[8]
  concentration reducing B cell (Raji) infection to 50%: 14.6 µg/mL
  fold decrease in fold potency against AMMO1, B cell (Raji) infection: 100 fold
[9]
  Kd: 5.99 nM
[10]
  Ka: 1.48e+08 M⁻¹

## CL59 (antibody)
[11]
  kon: 438000 M⁻¹ s⁻¹
[12]
  Ka: 1.81e+08 M⁻¹
[13]
  Kd: 6.39 nM
[14]
  koff: 0.0028 s⁻¹
[15]
  Ka: 1.57e+08 M⁻¹
[16]
  Kd: 5.52 nM
[17]
  koff: 0.00186 s⁻¹
[18]
  kon: 337000 M⁻¹ s⁻¹

## EBV gp42, recombinant ectodomain
[19]
  Ka: 7.84e+08 M⁻¹
[20]
  Kd: 1.28 nM
[21]
  kon: 224000 M⁻¹ s⁻¹
[22]
  koff: 0.000286 s⁻¹

## gp42 T175A, recombinant ectodomain
[23]
  Kd: 2.06 nM
[24]
  Ka: 4.85e+08 M⁻¹
  koff: 0.000299 s⁻¹
  kon: 145000 M⁻¹ s⁻¹
